PMC5794792

How the values were obtained:
[1] = biological target: Bovine α-chymotrypsin (bovine); test: complex dissociation followed by regain of protease activity; 5 µM serpin-chymotrypsin complex diluted 200–2000-fold (0–25 nM) into assay buffer with substrate, 25 °C; apparent rate constant k_(diss,app)
[2] = biological target: Bovine α-chymotrypsin (bovine); test: enzyme inhibition kinetics (progress curves); inhibition of chymotrypsin by several serpin concentrations followed over time at 25 °C; slope of kobs against inhibitor concentration, corrected for non-productive turnover (k'ass); protease assay buffer pH 8.0 with chromogenic substrate

## α1-antitrypsin (from UniProt P01009 25-418) (natural protein)
[1]
  koff: 7.5e-06 s⁻¹
[2]
  kon: 690000 M⁻¹ s⁻¹
